Legend:
[1] = live immunostaining; surface biotinylation pull-down; conditions: glycan lost; control: wild type SR-AI
[2] = FAM-oAβ uptake, confocal fluorescence quantification, COS-7; conditions: glycan lost; control: wild type SR-AI
[3] = not described (stated in discussion only); conditions: glycan lost; control: wild type MARCO

Protein | localisation_or_trafficking [1] | other: ligand internalisation [2] | localisation_or_trafficking [3]
SR-AI (scavenger receptor A type I): N143Q-N184Q (protein) parent chain: MEQWDHFHNQQEDTDSCSESVKFDARSMTALLPPNPKNSPSLQEKLKSFKAALIALYLLVFAVLIPLIGIVAAQLLKWETKNCSVSSTNANDITQSLTGKGNDSEEEMRFQEVFMEHMSNMEKRIQHILDMEANLMDTEHFQNFSMTTDQRFNDILLQLSTLFSSVQGHGNAIDEISKSLISLNTTLLDLQLNIENLNGKIQENTFKQQEEISKLEERVYNVSAEIMAMKEEQVHLEQEIKGEVKVLNNITNDLRLKDWEHSQTLRNITLIQGPPGPPGEKGDRGPTGESGPRGFPGPIGPPGLKGDRGAIGFPGSRGLPGYAGRPGNSGPKGQKGEKGSGNTLTPFTKVRLVGGSGPHEGRVEILHSGQWGTICDDRWEVRVGQVVCRSLGYPGVQAVHKAAHFGQGTGPIWLNEVFCFGRESSIEECKIRQWGTRACSHSEDAGVTCTL | no change | decreases | 
SR-AI (scavenger receptor A type I): N82Q (protein) parent chain: MEQWDHFHNQQEDTDSCSESVKFDARSMTALLPPNPKNSPSLQEKLKSFKAALIALYLLVFAVLIPLIGIVAAQLLKWETKNCSVSSTNANDITQSLTGKGNDSEEEMRFQEVFMEHMSNMEKRIQHILDMEANLMDTEHFQNFSMTTDQRFNDILLQLSTLFSSVQGHGNAIDEISKSLISLNTTLLDLQLNIENLNGKIQENTFKQQEEISKLEERVYNVSAEIMAMKEEQVHLEQEIKGEVKVLNNITNDLRLKDWEHSQTLRNITLIQGPPGPPGEKGDRGPTGESGPRGFPGPIGPPGLKGDRGAIGFPGSRGLPGYAGRPGNSGPKGQKGEKGSGNTLTPFTKVRLVGGSGPHEGRVEILHSGQWGTICDDRWEVRVGQVVCRSLGYPGVQAVHKAAHFGQGTGPIWLNEVFCFGRESSIEECKIRQWGTRACSHSEDAGVTCTL | no change | no change | 
SR-AI (scavenger receptor A type I): N102Q (protein) parent chain: MEQWDHFHNQQEDTDSCSESVKFDARSMTALLPPNPKNSPSLQEKLKSFKAALIALYLLVFAVLIPLIGIVAAQLLKWETKNCSVSSTNANDITQSLTGKGNDSEEEMRFQEVFMEHMSNMEKRIQHILDMEANLMDTEHFQNFSMTTDQRFNDILLQLSTLFSSVQGHGNAIDEISKSLISLNTTLLDLQLNIENLNGKIQENTFKQQEEISKLEERVYNVSAEIMAMKEEQVHLEQEIKGEVKVLNNITNDLRLKDWEHSQTLRNITLIQGPPGPPGEKGDRGPTGESGPRGFPGPIGPPGLKGDRGAIGFPGSRGLPGYAGRPGNSGPKGQKGEKGSGNTLTPFTKVRLVGGSGPHEGRVEILHSGQWGTICDDRWEVRVGQVVCRSLGYPGVQAVHKAAHFGQGTGPIWLNEVFCFGRESSIEECKIRQWGTRACSHSEDAGVTCTL | no change | no change | 
SR-AI (scavenger receptor A type I): N143Q (protein) parent chain: MEQWDHFHNQQEDTDSCSESVKFDARSMTALLPPNPKNSPSLQEKLKSFKAALIALYLLVFAVLIPLIGIVAAQLLKWETKNCSVSSTNANDITQSLTGKGNDSEEEMRFQEVFMEHMSNMEKRIQHILDMEANLMDTEHFQNFSMTTDQRFNDILLQLSTLFSSVQGHGNAIDEISKSLISLNTTLLDLQLNIENLNGKIQENTFKQQEEISKLEERVYNVSAEIMAMKEEQVHLEQEIKGEVKVLNNITNDLRLKDWEHSQTLRNITLIQGPPGPPGEKGDRGPTGESGPRGFPGPIGPPGLKGDRGAIGFPGSRGLPGYAGRPGNSGPKGQKGEKGSGNTLTPFTKVRLVGGSGPHEGRVEILHSGQWGTICDDRWEVRVGQVVCRSLGYPGVQAVHKAAHFGQGTGPIWLNEVFCFGRESSIEECKIRQWGTRACSHSEDAGVTCTL | no change | no change | 
SR-AI (scavenger receptor A type I): N184Q (protein) parent chain: MEQWDHFHNQQEDTDSCSESVKFDARSMTALLPPNPKNSPSLQEKLKSFKAALIALYLLVFAVLIPLIGIVAAQLLKWETKNCSVSSTNANDITQSLTGKGNDSEEEMRFQEVFMEHMSNMEKRIQHILDMEANLMDTEHFQNFSMTTDQRFNDILLQLSTLFSSVQGHGNAIDEISKSLISLNTTLLDLQLNIENLNGKIQENTFKQQEEISKLEERVYNVSAEIMAMKEEQVHLEQEIKGEVKVLNNITNDLRLKDWEHSQTLRNITLIQGPPGPPGEKGDRGPTGESGPRGFPGPIGPPGLKGDRGAIGFPGSRGLPGYAGRPGNSGPKGQKGEKGSGNTLTPFTKVRLVGGSGPHEGRVEILHSGQWGTICDDRWEVRVGQVVCRSLGYPGVQAVHKAAHFGQGTGPIWLNEVFCFGRESSIEECKIRQWGTRACSHSEDAGVTCTL | no change | no change | 
SR-AI (scavenger receptor A type I): N221Q (protein) parent chain: MEQWDHFHNQQEDTDSCSESVKFDARSMTALLPPNPKNSPSLQEKLKSFKAALIALYLLVFAVLIPLIGIVAAQLLKWETKNCSVSSTNANDITQSLTGKGNDSEEEMRFQEVFMEHMSNMEKRIQHILDMEANLMDTEHFQNFSMTTDQRFNDILLQLSTLFSSVQGHGNAIDEISKSLISLNTTLLDLQLNIENLNGKIQENTFKQQEEISKLEERVYNVSAEIMAMKEEQVHLEQEIKGEVKVLNNITNDLRLKDWEHSQTLRNITLIQGPPGPPGEKGDRGPTGESGPRGFPGPIGPPGLKGDRGAIGFPGSRGLPGYAGRPGNSGPKGQKGEKGSGNTLTPFTKVRLVGGSGPHEGRVEILHSGQWGTICDDRWEVRVGQVVCRSLGYPGVQAVHKAAHFGQGTGPIWLNEVFCFGRESSIEECKIRQWGTRACSHSEDAGVTCTL | no change | no change | 
SR-AI (scavenger receptor A type I): N249Q (protein) parent chain: MEQWDHFHNQQEDTDSCSESVKFDARSMTALLPPNPKNSPSLQEKLKSFKAALIALYLLVFAVLIPLIGIVAAQLLKWETKNCSVSSTNANDITQSLTGKGNDSEEEMRFQEVFMEHMSNMEKRIQHILDMEANLMDTEHFQNFSMTTDQRFNDILLQLSTLFSSVQGHGNAIDEISKSLISLNTTLLDLQLNIENLNGKIQENTFKQQEEISKLEERVYNVSAEIMAMKEEQVHLEQEIKGEVKVLNNITNDLRLKDWEHSQTLRNITLIQGPPGPPGEKGDRGPTGESGPRGFPGPIGPPGLKGDRGAIGFPGSRGLPGYAGRPGNSGPKGQKGEKGSGNTLTPFTKVRLVGGSGPHEGRVEILHSGQWGTICDDRWEVRVGQVVCRSLGYPGVQAVHKAAHFGQGTGPIWLNEVFCFGRESSIEECKIRQWGTRACSHSEDAGVTCTL | no change | no change | 
SR-AI (scavenger receptor A type I): N267Q (protein) parent chain: MEQWDHFHNQQEDTDSCSESVKFDARSMTALLPPNPKNSPSLQEKLKSFKAALIALYLLVFAVLIPLIGIVAAQLLKWETKNCSVSSTNANDITQSLTGKGNDSEEEMRFQEVFMEHMSNMEKRIQHILDMEANLMDTEHFQNFSMTTDQRFNDILLQLSTLFSSVQGHGNAIDEISKSLISLNTTLLDLQLNIENLNGKIQENTFKQQEEISKLEERVYNVSAEIMAMKEEQVHLEQEIKGEVKVLNNITNDLRLKDWEHSQTLRNITLIQGPPGPPGEKGDRGPTGESGPRGFPGPIGPPGLKGDRGAIGFPGSRGLPGYAGRPGNSGPKGQKGEKGSGNTLTPFTKVRLVGGSGPHEGRVEILHSGQWGTICDDRWEVRVGQVVCRSLGYPGVQAVHKAAHFGQGTGPIWLNEVFCFGRESSIEECKIRQWGTRACSHSEDAGVTCTL | no change | no change | 
SR-AI (scavenger receptor A type I): N102Q-N143Q (protein) parent chain: MEQWDHFHNQQEDTDSCSESVKFDARSMTALLPPNPKNSPSLQEKLKSFKAALIALYLLVFAVLIPLIGIVAAQLLKWETKNCSVSSTNANDITQSLTGKGNDSEEEMRFQEVFMEHMSNMEKRIQHILDMEANLMDTEHFQNFSMTTDQRFNDILLQLSTLFSSVQGHGNAIDEISKSLISLNTTLLDLQLNIENLNGKIQENTFKQQEEISKLEERVYNVSAEIMAMKEEQVHLEQEIKGEVKVLNNITNDLRLKDWEHSQTLRNITLIQGPPGPPGEKGDRGPTGESGPRGFPGPIGPPGLKGDRGAIGFPGSRGLPGYAGRPGNSGPKGQKGEKGSGNTLTPFTKVRLVGGSGPHEGRVEILHSGQWGTICDDRWEVRVGQVVCRSLGYPGVQAVHKAAHFGQGTGPIWLNEVFCFGRESSIEECKIRQWGTRACSHSEDAGVTCTL | no change | decreases | 
SR-AI (scavenger receptor A type I): N102Q-N184Q (protein) parent chain: MEQWDHFHNQQEDTDSCSESVKFDARSMTALLPPNPKNSPSLQEKLKSFKAALIALYLLVFAVLIPLIGIVAAQLLKWETKNCSVSSTNANDITQSLTGKGNDSEEEMRFQEVFMEHMSNMEKRIQHILDMEANLMDTEHFQNFSMTTDQRFNDILLQLSTLFSSVQGHGNAIDEISKSLISLNTTLLDLQLNIENLNGKIQENTFKQQEEISKLEERVYNVSAEIMAMKEEQVHLEQEIKGEVKVLNNITNDLRLKDWEHSQTLRNITLIQGPPGPPGEKGDRGPTGESGPRGFPGPIGPPGLKGDRGAIGFPGSRGLPGYAGRPGNSGPKGQKGEKGSGNTLTPFTKVRLVGGSGPHEGRVEILHSGQWGTICDDRWEVRVGQVVCRSLGYPGVQAVHKAAHFGQGTGPIWLNEVFCFGRESSIEECKIRQWGTRACSHSEDAGVTCTL |  | no change | 
MARCO: N83Q-136Q (protein) parent chain: MRNKKILKEDELLSETQQAAFHQIAMEPFEINVPKPKRRNGVNFSLAVVVIYLILLTAGAGLLVVQVLNLQARLRVLEMYFLNDTLAAEDSPSFSLLQSAHPGEHLAQGASRLQVLQAQLTWVRVSHEHLLQRVDNFTQNPGMFRIKGEQGAPGLQGHKGAMGMPGAPGPPGPPAEKGAKGAMGRDGATGPSGPQGPPGVKGEAGLQGPQGAPGKQGATGTPGPQGEKGSKGDGGLIGPKGETGTKGEKGDLGLPGSKGDRGMKGDAGVMGPPGAQGSKGDFGRPGPPGLAGFPGAKGDQGQPGLQGVPGPPGAVGHPGAKGEPGSAGSPGRAGLPGSPGSPGATGLKGSKGDTGLQGQQGRKGESGVPGPAGVKGEQGSPGLAGPKGAPGQAGQKGDQGVKGSSGEQGVKGEKGERGENSVSVRIVGSSNRGRAEVYYSGTWGTICDDEWQNSDAIVFCRMLGYSKGRALYKVGAGTGQIWLDNVQCRGTESTLWSCTKNSWGHHDCSHEEDAGVECSV |  |  | abolishes

From PMC4758095
